Results published in patent US20150361184.

Molecular target: T1, Flag-tagged kinase dead murine DLK S302A, not phosphorylated at T43, S272 and S533
T1 chain: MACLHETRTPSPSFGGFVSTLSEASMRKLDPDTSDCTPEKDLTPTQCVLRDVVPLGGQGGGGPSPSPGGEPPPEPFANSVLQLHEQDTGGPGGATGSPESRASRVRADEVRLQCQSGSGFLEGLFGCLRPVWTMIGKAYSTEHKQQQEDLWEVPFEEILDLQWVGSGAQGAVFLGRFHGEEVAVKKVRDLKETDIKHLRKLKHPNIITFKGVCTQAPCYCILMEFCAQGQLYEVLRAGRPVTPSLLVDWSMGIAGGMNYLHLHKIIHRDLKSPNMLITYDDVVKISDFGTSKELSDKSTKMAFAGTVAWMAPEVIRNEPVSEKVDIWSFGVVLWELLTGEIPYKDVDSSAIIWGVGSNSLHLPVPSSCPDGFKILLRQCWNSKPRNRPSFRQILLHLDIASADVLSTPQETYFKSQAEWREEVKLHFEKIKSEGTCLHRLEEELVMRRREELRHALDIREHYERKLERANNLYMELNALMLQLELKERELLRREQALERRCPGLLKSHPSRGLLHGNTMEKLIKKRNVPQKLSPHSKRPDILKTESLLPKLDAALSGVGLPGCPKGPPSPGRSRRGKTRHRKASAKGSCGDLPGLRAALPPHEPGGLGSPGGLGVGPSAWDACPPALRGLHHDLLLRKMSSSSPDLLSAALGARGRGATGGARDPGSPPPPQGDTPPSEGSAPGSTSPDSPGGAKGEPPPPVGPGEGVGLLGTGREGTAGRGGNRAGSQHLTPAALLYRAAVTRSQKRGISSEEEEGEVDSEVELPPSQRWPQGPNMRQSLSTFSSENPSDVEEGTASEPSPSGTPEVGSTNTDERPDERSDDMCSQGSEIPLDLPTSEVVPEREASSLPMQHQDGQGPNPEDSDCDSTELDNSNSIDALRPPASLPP

B1: GST-tagged human recombinant JNK3 (Millipore) (protein)
chain: MSLHFLYYCSEPTLDVKIAFCQGFDKQVDVSYIAKHYNMSKSKVDNQFYSVEVGDSTFTVLKRYQNLKPIGSGAQGIVCAAYDAVLDRNVAIKKLSRPFQNQTHAKRAYRELVLMKCVNHKNIISLLNVFTPQKTLEEFQDVYLVMELMDANLCQVIQMELDHERMSYLLYQMLCGIKHLHSAGIIHRDLKPSNIVVKSDCTLKILDFGLARTAGTSFMMTPYVVTRYYRAPEVILGMGYKENVDIWSVGCIMGEMVRHKILFPGRDYIDQWNKVIEQLGTPCPEFMKKLQPTVRNYVENRPKYAGLTFPKLFPDSLFPADSEHNKLKASQARDLLSKMLVIDPAKRISVDDALQHPYINVWYDPAEVEAPPPQIYDKQLDEREHTIEEWKELIYKEVMNSEEKTKNGVVKGQPSPSGAAVNSSESLPPSSSVNDISSMSTDQTLASDTDSSLEASAGPLGCCR
in vitro kinase assay; phosphorylation of T43 and S533 read by blotting with phospho-specific antibodies: both T43 and S533 can be phosphorylated directly by JNK
